Data from paper doi:10.1101/431791.

Biological target: AUR1-mRFP (A. thaliana) (UniProt Q9M077)
Test: FRET or BRET

UniProt Q9M077, sequence (Q9M077 whole entry): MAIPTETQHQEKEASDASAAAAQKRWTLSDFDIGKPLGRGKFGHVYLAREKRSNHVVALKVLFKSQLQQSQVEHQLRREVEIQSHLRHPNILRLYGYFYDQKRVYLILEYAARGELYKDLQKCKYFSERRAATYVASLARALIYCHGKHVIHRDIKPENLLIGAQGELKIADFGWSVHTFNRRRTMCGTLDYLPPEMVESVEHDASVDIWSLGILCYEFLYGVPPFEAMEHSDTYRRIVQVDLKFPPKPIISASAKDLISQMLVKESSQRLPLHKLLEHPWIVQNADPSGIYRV

TPXL2-GFP (natural protein)
donor (GFP) fluorescence lifetime with AUR1-RFP: 1.9 ns

TPXL3-GFP (natural protein)
donor (GFP) fluorescence lifetime with AUR1-RFP: 1.9 ns
